Data taken from paper PMC11574045, “A cofactor-induced repressive type of transcription factor condensation can be induced by synthetic peptides to suppress tumorigenesis” (The EMBO Journal, 2024).

B1: PRDM12 (protein, UniProt Q9H4Q4 1-367, looked up)
PR domain zinc finger protein …: MMGSVLPAEALVLKTGLKAPGLALAEVITSDILHSFLYGRWRNVLGEQLFEDKSHHASPKTAFTAEVLAQSFSGEVQKLSSLVLPAEVIIAQSSIPGEGLGIFSKTWIKAGTEMGPFTGRVIAPEHVDICKNNNLMWEVFNEDGTVRYFIDASQEDHRSWMTYIKCARNEQEQNLEVVQIGTSIFYKAIEMIPPDQELLVWYGNSHNTFLGIPGVPGLEEDQKKNKHEDFHPADSAAGPAGRMRCVICHRGFNSRSNLRSHMRIHTLDKPFVCRFCNRRFSQSSTLRNHVRLHTGERPYKCQVCQSAYSQLAGLRAHQKSARHRPPSTALQAHSPALPAPHAHAPALAAAAAAAAAAAAHHLPAMVL
B2: PPARD (protein, UniProt Q03181 1-441, looked up)
Peroxisome …: MEQPQEEAPEVREEEEKEEVAEAEGAPELNGGPQHALPSSSYTDLSRSSSPPSLLDQLQMGCDGASCGSLNMECRVCGDKASGFHYGVHACEGCKGFFRRTIRMKLEYEKCERSCKIQKKNRNKCQYCRFQKCLALGMSHNAIRFGRMPEAEKRKLVAGLTANEGSQYNPQVADLKAFSKHIYNAYLKNFNMTKKKARSILTGKASHTAPFVIHDIETLWQAEKGLVWKQLVNGLPPYKEISVHVFYRCQCTTVETVRELTEFAKSIPSFSSLFLNDQVTLLKYGVHEAIFAMLASIVNKDGLLVANGSGFVTREFLRSLRKPFSDIIEPKFEFAVKFNALELDDSDLALFIAAIILCGDRPGLMNVPRVEAIQDTILRALEFHLQANHPDAQYLFPKLLQKMADLRQLVTEHAQMMQRIKKTETETSLHPLLQEIYKDMY
B3: POU4F1 (protein, UniProt Q01851 1-419, looked up)
POU domain, class 4, …: MMSMNSKQPHFAMHPTLPEHKYPSLHSSSEAIRRACLPTPPLQSNLFASLDETLLARAEALAAVDIAVSQGKSHPFKPDATYHTMNSVPCTSTSTVPLAHHHHHHHHHQALEPGDLLDHISSPSLALMAGAGGAGAAAGGGGAHDGPGGGGGPGGGGGPGGGPGGGGGGGPGGGGGGPGGGLLGGSAHPHPHMHSLGHLSHPAAAAAMNMPSGLPHPGLVAAAAHHGAAAAAAAAAAGQVAAASAAAAVVGAAGLASICDSDTDPRELEAFAERFKQRRIKLGVTQADVGSALANLKIPGVGSLSQSTICRFESLTLSHNNMIALKPILQAWLEEAEGAQREKMNKPELFNGGEKKRKRTSIAAPEKRSLEAYFAVQPRPSSEKIAAIAEKLDLKKNVVRVWFCNQRQKQKRMKFSATY
B4: BANP (protein, UniProt Q8N9N5 1-519, looked up)
Protein BANP: MMSEHDLADVVQIAVEDLSPDHPVVLENHVVTDEDEPALKRQRLEINCQDPSIKTICLRLDSIEAKLQALEATCKSLEEKLDLVTNKQHSPIQVPMVAGSPLGATQTCNKVRCVVPQTTVILNNDRQNAIVAKMEDPLSNRAPDSLENVISNAVPGRRQNTIVVKVPGQEDSHHEDGESGSEASDSVSSCGQAGSQSIGSNVTLITLNSEEDYPNGTWLGDENNPEMRVRCAIIPSDMLHISTNCRTAEKMALTLLDYLFHREVQAVSNLSGQGKHGKKQLDPLTIYGIRCHLFYKFGITESDWYRIKQSIDSKCRTAWRRKQRGQSLAVKSFSRRTPNSSSYCPSEPMMSTPPPASELPQPQPQPQALHYALANAQQVQIHQIGEDGQVQVGHLHIAQVPQGEQVQITQDSEGNLQIHHVGQDGQLLEATRIPCLLAPSVFKASSGQVLQGAQLIAVASSDPAAAGVDGSPLQGSDIQVQYVQLAPVSDHTAGAQTAEALQPTLQPEMQLEHGAIQIQ
B5: PRDM16 (protein, UniProt Q9HAZ2 1-1276, looked up)
Histone-lysine …: MRSKARARKLAKSDGDVVNNMYEPNRDLLASHSAEDEAEDSAMSPIPVGPPSPFPTSEDFTPKEGSPYEAPVYIPEDIPIPADFELRESSIPGAGLGVWAKRKMEAGERLGPCVVVPRAAAKETDFGWEQILTDVEVSPQEGCITKISEDLGSEKFCVDANQAGAGSWLKYIRVACSCDDQNLTMCQISEQIYYKVIKDIEPGEELLVHVKEGVYPLGTVPPGLDEEPTFRCDECDELFQSKLDLRRHKKYTCGSVGAALYEGLAEELKPEGLGGGSGQAHECKDCERMFPNKYSLEQHMVIHTEEREYKCDQCPKAFNWKSNLIRHQMSHDSGKRFECENCVKVFTDPSNLQRHIRSQHVGARAHACPDCGKTFATSSGLKQHKHIHSTVKPFICEVCHKSYTQFSNLCRHKRMHADCRTQIKCKDCGQMFSTTSSLNKHRRFCEGKNHYTPGGIFAPGLPLTPSPMMDKAKPSPSLNHASLGFNEYFPSRPHPGSLPFSTAPPTFPALTPGFPGIFPPSLYPRPPLLPPTSLLKSPLNHTQDAKLPSPLGNPALPLVSAVSNSSQGTTAAAGPEEKFESRLEDSCVEKLKTRSSDMSDGSDFEDVNTTTGTDLDTTTGTGSDLDSDVDSDPDKDKGKGKSAEGQPKFGGGLAPPGAPNSVAEVPVFYSQHSFFPPPDEQLLTATGAAGDSIKAIASIAEKYFGPGFMGMQEKKLGSLPYHSAFPFQFLPNFPHSLYPFTDRALAHNLLVKAEPKSPRDALKVGGPSAECPFDLTTKPKDVKPILPMPKGPSAPASGEEQPLDLSIGSRARASQNGGGREPRKNHVYGERKLGAGEGLPQVCPARMPQQPPLHYAKPSPFFMDPIYSRVEKRKVTDPVGALKEKYLRPSPLLFHPQMSAIETMTEKLESFAAMKADSGSSLQPLPHHPFNFRSPPPTLSDPILRKGKERYTCRYCGKIFPRSANLTRHLRTHTGEQPYRCKYCDRSFSISSNLQRHVRNIHNKEKPFKCHLCNRCFGQQTNLDRHLKKHEHENAPVSQHPGVLTNHLGTSASSPTSESDNHALLDEKEDSYFSEIRNFIANSEMNQASTRTEKRADMQIVDGSAQCPGLASEKQEDVEEEDDDDLEEDDEDSLAGKSQDDTVSPAPEPQAAYEDEEDEEPAASLAVGFDHTRRCAEDHEGGLLALEPMPTFGKGLDLRRAAEEAFEVKDVLNSTLDSEALKHTLCRQAKNQAYAMMLSLSEDTPLHTPSQGSLDAWLKVTGATSESGAFHPINHL
B6: PRDM10 (protein, UniProt Q9NQV6 1-1147, looked up)
PR domain zinc finger protein …: MDSKDESSHVWPTSAEHEQNAAQVHFVPDTGTVAQIVYTDDQVRPPQQVVYTADGASYTSVDGPEHTLVYIHPVEAAQTLFTDPGQVAYVQQDATAQQASLPVHNQVLPSIESVDGSDPLATLQTPLGRLEAKEEEDEDEDEDTEEDEEEDGEDTDLDDWEPDPPRPFDPHDLWCEECNNAHASVCPKHGPLHPIPNRPVLTRARASLPLVLYIDRFLGGVFSKRRIPKRTQFGPVEGPLVRGSELKDCYIHLKVSLDKGDRKERDLHEDLWFELSDETLCNWMMFVRPAQNHLEQNLVAYQYGHHVYYTTIKNVEPKQELKVWYAASYAEFVNQKIHDISEEERKVLREQEKNWPCYECNRRFISSEQLQQHLNSHDEKLDVFSRTRGRGRGRGKRRFGPGRRPGRPPKFIRLEITSENGEKSDDGTQDLLHFPTKEQFDEAEPATLNGLDQPEQTTIPIPQLPQETQSSLEHEPETHTLHLQPQHEESVVPTQSTLTADDMRRAKRIRLELQNAALQHLFIRKSFRPFKCLQCGKAFREKDKLDQHLRFHGREGNCPLTCDLCNKGFISSTSLESHMKLHSDQKTYSCIFCPESFDRLDLLKDHVAIHINDGYFTCPTCKKRFPDFIQVKKHVRSFHSEKIYQCTECDKAFCRPDKLRLHMLRHSDRKDFLCSTCGKQFKRKDKLREHMQRMHNPEREAKKADRISRSKTFKPRITSTDYDSFTFKCRLCMMGFRRRGMLVNHLSKRHPDMKIEEVPELTLPIIKPNRDYFCQYCDKVYKSASKRKAHILKNHPGAELPPSIRKLRPAGPGEPDPMLSTHTQLTGTIATPPVCCPHCSKQYSSKTKMVQHIRKKHPEFAQLSNTIHTPLTTAVISATPAVLTTDSATGETVVTTDLLTQAMTELSQTLTTDYRTPQGDYQRIQYIPVSQSASGLQQPQHIQLQVVQVASATSPHQSQQSTVDVGQLHDPQPYPQHAIQVQHIQVSGQPLSPSAQQAQQGLSPSHIQGSSSTQGQALQQQQQQQQNSSVQHTYLPSAWNSFRGYSSEIQMMTLPPGQFVITDSGVATPVTTGQVKAVTSGHYVLSESQSELEEKQTSALSGGVQVEPPAHSDSLDPQTNSQQQTTQYIITTTTNGNGSSEVHITKP
B7: POU5F2 (protein, UniProt Q8N7G0 1-328, looked up)
POU domain, class 5, …: MAGHRPSNHFCPLPGSGGGGPRGPMPLRVDTLTWLSTQAAPGRVMVWPAVRPGICPGPDVWRIPLGPLPHEFRGWIAPCRPRLGASEAGDWLRRPSEGALPGPYIALRSIPKLPPPEDISGILKELQQLAKELRQKRLSLGYSQADVGIAVGALFGKVLSQTTICRFEAQQLSVANMWKLRPLLKKWLKEVEAENLLGLCKMEMILQQSGKWRRASRERRIGNSLEKFFQRCPKPTPQQISHIAGCLQLQKDVVRVWFYNRSKMGSRPTNDASPREIVGTAGPPCPGAPVCFHLGLGLPVDIPHYTRLYSAGVAHSSAPATTLGLLRF
B8: POU3F4 (protein, UniProt P49335 1-361, looked up)
POU domain, class 3, …: MATAASNPYSILSSTSLVHADSAGMQQGSPFRNPQKLLQSDYLQGVPSNGHPLGHHWVTSLSDGGPWSSTLATSPLDQQDVKPGREDLQLGAIIHHRSPHVAHHSPHTNHPNAWGASPAPNPSITSSGQPLNVYSQPGFTVSGMLEHGGLTPPPAAASAQSLHPVLREPPDHGELGSHHCQDHSDEETPTSDELEQFAKQFKQRRIKLGFTQADVGLALGTLYGNVFSQTTICRFEGLQLSFKNMCKLKPLLNKWLEEADSSTGSPTSIDKIAAQGRKRKKRTSIEVSVKGVLETHFLKCPKPAAQEISSLADSLQLEKEVVRVWFCNRRQKEKRMTPPGDQQPHEVYSHTVKTDTSCHDL
B9: PQBP1 (protein, UniProt O60828 2-265, looked up)
Polyglutamine-binding protein …: PLPVALQTRLAKRGILKHLEPEPEEEIIAEDYDDDPVDYEATRLEGLPPSWYKVFDPSCGLPYYWNADTDLVSWLSPHDPNSVVTKSAKKLRSSNADAEEKLDRSHDKSDRGHDKSDRSHEKLDRGHDKSDRGHDKSDRDRERGYDKVDRERERDRERDRDRGYDKADREEGKERRHHRREELAPYPKSKKAVSRKDEELDPMDPSSYSDAPRGTWSTGLPKRNEAKTGADTTAAGPLFQQRPYPSPGAVLRANAEASRTKQQD

Test system: HEK293FT cells transfected with TF library
Assay: Screening of TF condensates based on fluorescent puncta
Type: cell-based
Conditions: Figure 1B numerical data; TF library screen, one value per transcriptional factor
Procedure, shortened: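 HEK293FT cells were reverse-transfected with Flag- or GAL4-tagged TF plasmids (1.6 μg/ml, PEI). After 60 h, cells were cultured 12 h with or without glucose, then fixed and immunostained with anti-Flag or anti-GAL4 and Alexa 488 secondaries. Fluorescent puncta were imaged over fifty random fields per well by high-content imaging.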

Molecule | Z score of condensed fraction
B1 | -1.027
B2 | -0.9649
B3 | -0.7489
B4 | 1.258
B5 | -0.4468
B6 | 0.3409
B7 | 1.226
B8 | -0.484
B9 | -0.5347
